Experimental data taken from patent publication US20230295272A1.

Columns and labels:
[1] = target: canine parvovirus (CPV), CPV-2c TS02 strain, purified virus (canine parvovirus CPV-2c (TS02 strain)); test: indirect ELISA, purified CPV coated at 10 ug/mL, purified nanobody diluted 1:100, anti-His-HRP
[2] = target: canine parvovirus (CPV), CPV-2c TS02 strain, purified virus (canine parvovirus CPV-2c (TS02 strain)); test: indirect ELISA, purified CPV coated at 10 ug/mL, purified nanobody diluted 1:1,000, anti-His-HRP
[3] = target: canine parvovirus (CPV), CPV-2c TS02 strain, purified virus (canine parvovirus CPV-2c (TS02 strain)); test: cell-based or functional assay
[4] = target: canine parvovirus (CPV), CPV-2c TS02 strain, purified virus (canine parvovirus CPV-2c (TS02 strain)); test: indirect ELISA, purified CPV coated at 10 ug/mL, purified nanobody diluted 1:10,000, anti-His-HRP
[5] = target: canine parvovirus (CPV), CPV-2c TS02 strain, purified virus (canine parvovirus CPV-2c (TS02 strain)); test: indirect ELISA, purified CPV coated at 10 ug/mL, purified nanobody diluted 1:10, anti-His-HRP

B1: canine parvovirus (CPV) nanobody CPV-VHH-E3 (VHH)
VHH: QLQLVESGGGSVQPGGSLRLSCAASGFTLDFYRVGWFRQAPGKERQGVACIGSAGDRTFYVDSVKGRFTISKDNTKNTVYLQMNSLKPEDTAVYYCAAVLSPRITSVQAMCTHHGEGFDYWGQGTQVTVSS
OD450nm average value [1]: 2.6 OD450nm
OD450nm average value [2]: 2.24 OD450nm
CPE number at antibody dilution 1:10 (of 3 wells with CPE) [3]: 3
neutralizing titer (virus neutralization test, CPE on CRFK cells) (titer (1:x dilution)) [3]: < 10
OD450nm average value [4]: 0.17 OD450nm
OD450nm average value [5]: 2.81 OD450nm
